According to patent US20060062793A1 (published 2006):

Key:
[1] = target: T1, prostate specific membrane antigen (PSMA) on LNCaP cells (human, UniProt Q04609 1-750); experiment: not described
T1 construct: whole, on cells; Used for intact LNCaP cells, LNCaP membrane preparations and LNCaP tumour or prostate tissue sections; also called human PSMA; LNCap membrane preparation

[2] = target: T1, prostate specific membrane antigen …; experiment: ELISA on plates coated with LNCaP membrane preparation
[3] = target: T1, prostate specific membrane antigen …; experiment: ELISA on LNCaP membrane preparation, purified antibody, reference J415 chimeric antibody

T1 sequence (Q04609 whole entry): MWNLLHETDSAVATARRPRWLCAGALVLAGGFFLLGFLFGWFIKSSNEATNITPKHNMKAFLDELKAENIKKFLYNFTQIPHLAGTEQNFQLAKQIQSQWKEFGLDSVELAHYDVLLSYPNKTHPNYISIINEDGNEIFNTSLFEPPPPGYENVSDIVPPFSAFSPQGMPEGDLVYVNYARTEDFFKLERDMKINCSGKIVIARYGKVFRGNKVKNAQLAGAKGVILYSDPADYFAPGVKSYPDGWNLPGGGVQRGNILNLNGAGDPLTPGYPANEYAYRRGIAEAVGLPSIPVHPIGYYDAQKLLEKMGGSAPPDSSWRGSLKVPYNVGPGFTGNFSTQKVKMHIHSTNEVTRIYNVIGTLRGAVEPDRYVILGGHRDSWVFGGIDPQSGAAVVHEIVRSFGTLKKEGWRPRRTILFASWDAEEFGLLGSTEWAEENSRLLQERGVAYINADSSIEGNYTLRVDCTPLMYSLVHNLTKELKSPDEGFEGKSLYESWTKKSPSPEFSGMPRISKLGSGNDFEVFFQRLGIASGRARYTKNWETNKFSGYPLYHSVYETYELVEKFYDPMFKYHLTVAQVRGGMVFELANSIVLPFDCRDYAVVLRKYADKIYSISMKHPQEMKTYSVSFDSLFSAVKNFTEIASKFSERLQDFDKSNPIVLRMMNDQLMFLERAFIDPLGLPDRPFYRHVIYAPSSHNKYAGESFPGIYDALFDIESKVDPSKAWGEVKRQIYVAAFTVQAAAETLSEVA

B1: murine E99 monoclonal antibody (antibody, mouse IgG3, V domains shown)
VH: QVQLKESGPGLVASSQSLSITCTVSGFSLTAYGINWVRQPPGKGLEWLGVIWPDGNTDYNSTLKSRLNIFKDNSKNQVFLKMSSFQTDDTARYFCARDSYGNFKRGWFDFWGQGTTLTVSS
VL: NIVMTQSQKFMSTSPGDRVRVTCKASQNVGSDVAWYQAKPGQSPRILIYSTSYRYSGVPDRFTAYGSGTDFTLTITNVQSEDLTEYFCQQYNSYPLTFGAGTKLELK
[1]
  binding result: binds

B2: murine J533 monoclonal antibody (antibody, mouse IgG1, V domains shown)
VH: EVQLQQSGPELVKPGASVKMSCKASGYTFTGYVMHWVKQKPGQVLEWIGYINPYNDVTRYNGKFKGKATLTSDKYSSTAYMELSGLTSEDSAVYYCARGENWYYFDSWGRGATLTVSS
VL: DIVLTQSPASLAVSLGQRATISCRASESIDSYDNTFMHWYQQKPGQPPNLLIFRASILESGIPARFSGSGSGTDFTLTIYPVEADDVATYYCHQSIEDPYTFGGGTKLEIK
notes: Mouse IgG1 kappa, hybridoma ATCC HB-12127
[1]
  binding result: binds

B3: deimmunized J415 antibody, heavy chain version 4 with light chain version 5 (antibody, human IgG1, V domains shown)
VH: EVKLEESGGGLVQPGGSMKISCVASGFTFSNYWMNWVRQSPEKGLEWVAEIRSQSNNFATHYAESVKGRVIISRDDSKSSVYLQMNSLRAEDTAVYYCTRRWNNFWGQGTTVTVSS
VL: NIVMTQFPKSMSASAGERMTLTCKASENVGTYVSWYQQKPTQSPKMLIYGASNRFTGVPDRFSGSGSGTDFILTISSVQAEDLVDYYCGQSYTFPYTFGGGTKLEMK
notes: also called DIVH4/DIVK5; J415DIVH4/J415DIVK5
[2]
  binding result: binds

B4: deimmunized J415 antibody, heavy chain version 1 with light chain version 5 (antibody, human IgG1, V domains shown)
VH: EVKLEESGGGLVQPGGSMKISCKASGFTFSNYWMNWVRQTPEKGLEWVALIRSQSNNFATHYAESVKGRVIISRDDSKSSVYLQMNSLRAEDTAVYYCTRRWNNFWGQGTTVTVSS
VL: NIVMTQFPKSMSASAGERMTLTCKASENVGTYVSWYQQKPTQSPKMLIYGASNRFTGVPDRFSGSGSGTDFILTISSVQAEDLVDYYCGQSYTFPYTFGGGTKLEMK
notes: also called DIVH1/DIVK5; J415DIVH1 with DIVK5
[3]
  fold less binding than the chimeric antibody: 2 fold

B5: J415 chimeric antibody (antibody, V domains shown)
VH: EVKLEESGGGLVQPGGSMKLSCVASGFTFSNYWMNWVRQSPEKGLEWVAEIRSQSNNFATHYAESVKGRVIISRDDSKSSVYLQMNNLRAEDTGIYYCTRRWNNFWGQGTTLTVSS
VL: NIVMTQFPKSMSISVGERVTLTCKASENVGTYVSWYQQKPEQSPKMLIYGASNRFTGVPDRFTGSGSATDFILTISSVQTEDLVDYYCGQSYTFPYTFGGGTKLEMK
notes: also called the chimeric
[2]
  binding result: binds

B6: deimmunized J415 antibody, heavy chain version 2 with light chain version 5 (antibody, human IgG1, V domains shown)
VH: EVKLEESGGGLVQPGGSMKISCVASGFTFSNYWMNWVRQTPEKGLEWVALIRSQSNNFATHYAESVKGRVIISRDDSKSSVYLQMNSLRAEDTAVYYCTRRWNNFWGQGTTVTVSS
VL: NIVMTQFPKSMSASAGERMTLTCKASENVGTYVSWYQQKPTQSPKMLIYGASNRFTGVPDRFSGSGSGTDFILTISSVQAEDLVDYYCGQSYTFPYTFGGGTKLEMK
notes: also called DIVH2/DIVK5; J415DIVH2 with DIVK5
[3]
  fold less binding than the chimeric antibody: 2 fold

B7: murine J415 monoclonal antibody (antibody, mouse IgG1, V domains shown)
VH: EVKLEESGGGLVQPGGSMKLSCVASGFTFSNYWMNWVRQSPEKGLEWVAEIRSQSNNFATHYAESVKGRVIISRDDSKSSVYLQMNNLRAEDTGIYYCTRRWNNFWGQGTTLTVSS
VL: NIVMTQFPKSMSISVGERVTLTCKASENVGTYVSWYQQKPEQSPKMLIYGASNRFTGVPDRFTGSGSATDFILTISSVQTEDLVDYYCGQSYTFPYTFGGGTKLEMK
notes: Mouse IgG1 kappa, hybridoma ATCC HB-12109
[1]
  binding result: binds
